Results on 4 substances are retold here after publication doi:10.1101/524447.

Usually pKd stands for the Kd on a negative log10 scale, so that one unit is a factor of ten. A low value points to a high Kd.

pKd: −log10 of the molar value.

The assay has as its target Integrin β3 cytoplasmic tail peptide (human (from the printed UniProt ID)). Briefly: SPR. Background: In SPR one partner is held on a chip, and binding of the other changes the refractive index at the surface.
For “Syk C-terminal SH2 domain with the IA segment (IA-C-SH2) (domain or fragment)”, the pKd was 4.60. As for “Syk N-terminal SH2 domain alone (N-SH2) (domain or fragment)”, the figure is 3.89. “Syk N-terminal SH2 domain with the IA segment (N-SH2+IA) (domain or fragment)” showed a pKd of 5.10. The value for “Syk tandem SH2 (tSH2) fragment, amino acids 9-264 (from UniProt P43405 9-264) (domain or fragment)” was 5.52.
